In the series with Ras-CVLS (SEQ ID NO: 3), “Human protein farnesyltransferase (hFTase)” gave a Turnover numbers under the optimal substrate concentrations of 1 min⁻¹. Take “W102T mutant of human FTase (W102β converted to threonine)”: in the series on Ras-CVLS (SEQ ID NO: 3), the Turnover numbers under the optimal substrate concentrations stood at 0.59 min⁻¹ and the “substrate specificity characterized by enzymatic assays” value is “creating an FTase enzyme greatly preferring GGPP over FPP as its isoprenoid substrate without significantly altering Ca1a2X sequence specificity”. In the series on Ras-CVLL (SEQ ID NO: 4), “Wild-type GGTase-I used in the prenylation assay of Example 3” registered a Turnover numbers under the optimal substrate concentrations of 0.65 min⁻¹.

(Values after patent US20050221459.)
